Data set [1] deals with T1, VboTA (Variovorax boronicumulans ω-transaminase) (Variovorax boronicumulans, UniProt Z9A1T7NCF1).
T1 construct: full length, 433 aa, C-terminal His-tag (pET21b, NdeI/XhoI), codon-optimised, E. coli BL21(DE3), Ni-NTA
As to the kind of experiment: activity at varied substrate concentration. The conditions noted are these: substrate inhibition; pH 9, 30 °C. The data set is classed as biochemical.

Another data set concerns CC(C)C(N)CC(=O)O. As to the kind of experiment: purified protein. The conditions noted are these: 5.2 mM 2-oxoglutarate, 0.1 mM PLP, 100 mM potassium borate pH 9, 30 °C, donor 2-10 mM.
In a further data set the test system is CC(N)CC(=O)O. As to the kind of experiment: purified protein. The conditions noted are these: 5.2 mM 2-oxoglutarate, 0.1 mM PLP, 100 mM potassium borate pH 9, 30 °C, donor 2-10 mM.
The subject of another data set is NC(CC(=O)O)Cc1ccccc1. As to the kind of experiment: purified protein. The following applies: 5.2 mM 2-oxoglutarate, 0.1 mM PLP, 100 mM potassium borate pH 9, 30 °C, donor 2-10 mM.
The subject of the next data set is NC(CC(=O)O)c1ccccc1. As to the kind of experiment: purified protein. The conditions noted are these: 5.2 mM 2-oxoglutarate, 0.1 mM PLP, 100 mM potassium borate pH 9, 30 °C, donor 2-10 mM, Km above tested range.
A further data set deals with O=C(O)CCC(=O)C(=O)O. Kind of data set: purified protein. The conditions noted are these: 10 mM β-phenylalanine, 0.1 mM PLP, 100 mM potassium borate pH 9, 30 °C, 2-8 mM 2-oxoglutarate.

T1 sequence (Z9A1T7NCF1 1-433): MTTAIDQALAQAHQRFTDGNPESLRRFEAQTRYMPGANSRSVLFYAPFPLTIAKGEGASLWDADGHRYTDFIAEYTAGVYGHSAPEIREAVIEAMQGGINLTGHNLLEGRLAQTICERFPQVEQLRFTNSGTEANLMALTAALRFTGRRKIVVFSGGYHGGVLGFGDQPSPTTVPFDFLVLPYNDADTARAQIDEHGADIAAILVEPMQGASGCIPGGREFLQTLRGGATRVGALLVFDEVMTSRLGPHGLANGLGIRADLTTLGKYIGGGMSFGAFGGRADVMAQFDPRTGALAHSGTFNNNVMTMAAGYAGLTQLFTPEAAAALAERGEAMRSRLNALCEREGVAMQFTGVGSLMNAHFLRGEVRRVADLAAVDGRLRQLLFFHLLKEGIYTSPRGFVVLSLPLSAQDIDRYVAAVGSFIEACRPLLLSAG
Source text for CC(C)C(N)CC(=O)O: (§1) glutamate quantification, Lineweaver-Burk on VboTA (Variovorax boronicumulans ω-transaminase)
Source text for CC(N)CC(=O)O: as §1
Source text for NC(CC(=O)O)Cc1ccccc1: as §1
Source text for NC(CC(=O)O)c1ccccc1: as §1
Source text for O=C(O)CCC(=O)C(=O)O: as §1

As to `O=C(O)CCC(=O)C(=O)O` [2-Oxoglutaric acid], the “loss of activity at 20 mM” value in data set [1] is ~ 70%.
As usually defined, the Km is the concentration of substrate that gives half-maximal velocity. Usually Vmax stands for the top rate of the reaction or transport when substrate is in excess. Usually kcat stands for the maximal rate divided by the concentration of active sites. In general, kcat/Km refers to the turnover number divided by the Michaelis constant. Turning to “VboTA (Variovorax boronicumulans ω-transaminase) (Variovorax boronicumulans)”, the Km was found to be 44.7 ± 1.2 mM in the data set with CC(C)C(N)CC(=O)O; 4.4 ± 0.3 mM in the data set on CC(N)CC(=O)O; 0.7 ± 0.2 mM with NC(CC(=O)O)Cc1ccccc1; 24.7 ± 3.8 mM with NC(CC(=O)O)c1ccccc1; 2.1 ± 0.4 mM with O=C(O)CCC(=O)C(=O)O. The Vmax with CC(C)C(N)CC(=O)O was found to be 48.5 µmol/min; in the data set with CC(N)CC(=O)O, 1.4 µmol/min; in the data set on NC(CC(=O)O)Cc1ccccc1, 1.1 µmol/min; in the data set on NC(CC(=O)O)c1ccccc1, 20.5 µmol/min; in the data set with O=C(O)CCC(=O)C(=O)O, 24.9 µmol/min. Also, the kcat in the data set on CC(C)C(N)CC(=O)O was found to be 66.5 ± 7.1 s⁻¹; with CC(N)CC(=O)O it was 2 ± 0.2 s⁻¹; in the data set with NC(CC(=O)O)Cc1ccccc1, 1.6 ± 0.07 s⁻¹; with NC(CC(=O)O)c1ccccc1, 28.1 ± 3.3 s⁻¹; with O=C(O)CCC(=O)C(=O)O, 34.2 ± 2.7 s⁻¹. Also, the kcat/Km with CC(C)C(N)CC(=O)O is 1500 ± 200 M⁻¹ s⁻¹; in the data set with CC(N)CC(=O)O, 450 ± 50 M⁻¹ s⁻¹; in the data set with NC(CC(=O)O)Cc1ccccc1, 2200 ± 100 M⁻¹ s⁻¹; in the data set on NC(CC(=O)O)c1ccccc1, 1100 ± 100 M⁻¹ s⁻¹; in the data set with O=C(O)CCC(=O)C(=O)O, 16200 ± 1300 M⁻¹ s⁻¹.

The values are drawn from PMC9850050, “A transaminase with β-activity from Variovorax boronicumulans for the production of enantiopure β-amino acids” (Heliyon, 2022).
